# Experimental data published in US20100041873A1.
# Molecular target: Human IL-21 receptor on Baf3/KZ134/huIL-21R cells (human) (UniProt Q9HBE5)
# Assay: cell-based or functional assay
# Chain of Human IL-21 receptor on Baf3/KZ134/huIL-21R cells (human) (Q9HBE5 20-538): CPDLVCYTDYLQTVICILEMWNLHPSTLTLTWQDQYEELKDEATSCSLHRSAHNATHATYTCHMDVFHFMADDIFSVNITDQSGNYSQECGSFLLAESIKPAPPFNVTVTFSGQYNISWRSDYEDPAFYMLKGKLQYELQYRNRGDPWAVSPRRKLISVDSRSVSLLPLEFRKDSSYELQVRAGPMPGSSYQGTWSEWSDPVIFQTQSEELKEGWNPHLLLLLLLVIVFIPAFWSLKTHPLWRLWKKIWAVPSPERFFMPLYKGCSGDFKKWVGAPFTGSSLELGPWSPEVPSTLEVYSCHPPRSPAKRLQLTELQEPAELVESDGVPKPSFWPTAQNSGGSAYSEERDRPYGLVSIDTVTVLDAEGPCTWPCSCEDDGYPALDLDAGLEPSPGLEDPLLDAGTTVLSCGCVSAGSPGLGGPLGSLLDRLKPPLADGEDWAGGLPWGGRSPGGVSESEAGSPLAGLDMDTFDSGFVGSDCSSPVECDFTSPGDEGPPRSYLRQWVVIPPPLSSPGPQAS
substance,measurement,value
Recombinant rat IL-21 (from UniProt A3QPB9 18-146) (ligand),"EC90, 24 hr STAT-Luciferase assay in Baf3/KZ134/huIL-21R cells",1.08 nM
